# Measurements reported in PMC6588440 (Free radical biology & medicine, 2019).
# Target: the molecule itself
# Assay: non-reducing SDS-PAGE immunoblot
row,Protein,stoichiometry N
1,"Peroxiredoxin 1 (Prx1) (natural protein, UniProt Q06830 1-199, looked up, inter-subunit disulfide (oxidized dimer); reduced thiols alkylated with NEM before lysis) MSSGNAKIGHPAPNFKATAVMPDGQFKDISLSDYKGKYVVFFFYPLDFTFVCPTEIIAFSDRAEEFKKLNCQVIGASVDSHFCHLAWVNTPKKQGGLGPMNIPLVSDPKRTIAQDYGVLKADEGISFRGLFIIDDKGILRQITVNDLPVGRSVDETLRLVQAFQFTDKHGEVCPAGWKPGSDTIKPDVQKSKEYFSKQK",2
2,"Peroxiredoxin 3 (Prx3) (natural protein, UniProt P30048 62-256, looked up, inter-subunit disulfide (oxidized dimer); reduced thiols alkylated with NEM before lysis) APAVTQHAPYFKGTAVVNGEFKDLSLDDFKGKYLVLFFYPLDFTFVCPTEIVAFSDKANEFHDVNCEVVAVSVDSHFSHLAWINTPRKNGGLGHMNIALLSDLTKQISRDYGVLLEGSGLALRGLFIIDPNGVIKHLSVNDLPVGRSVEETLRLVKAFQYVETHGEVCPANWTPDSPTIKPSPAASKEYFQKVNQ",2
3,"Peroxiredoxin 2 (Prx2) (natural protein, UniProt P32119 1-198, looked up, inter-subunit disulfide (oxidized dimer); reduced thiols alkylated with NEM before lysis) MASGNARIGKPAPDFKATAVVDGAFKEVKLSDYKGKYVVLFFYPLDFTFVCPTEIIAFSNRAEDFRKLGCEVLGVSVDSQFTHLAWINTPRKEGGLGPLNIPLLADVTRRLSEDYGVLKTDEGIAYRGLFIIDGKGVLRQITVNDLPVGRSVDEALRLVQAFQYTDEHGEVCPAGWKPGSDTIKPNVDDSKEYFSKHN",2
